Experiment: yeast display, Sf9 membrane polyspecificity reagent, FACS + sequencing; frameworks hold sequencing errors
Procedure, shortened: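 Using colony PCR, genes from sorted yeast display clones were amplified, then sequenced on MiSeq at 2 × 250 and filtered by CDR length. The clones had been stained with 10% biotinylated, detergent-solubilized Sf9 membrane reagent for 1 hour at 4 °C and sorted by FACS into low and high (top ~1%) gates on anti-HA and streptavidin fluorescence. Polyreactivity labels come from the gate of origin.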

| Sequence | polyreactivity (PSR sort gate) |
| --- | --- |
| QVQLVESGGGLVQAGGSLRLSCAASGSTFRYYAMGWYRQAPGKERELVAAITFDGGTTSYADSVKGRFTISRDNAKNTVYLQMNSLKPEDTAVYYCAREGRTYWSKSISPYWRYGYWGQGTQVTVSS | high polyreactivity |
| QVQIVESGGGLVQAGGSLRLSCAASGFTCRGNAMGWYRQAPGKERELVATISYNAGSTYYADAVKGRFTISRDNAKNTVYFQMNSLNPEDTAVYYCAVELDSEPDYEPWTEYDYWGQGTQVTVSS | low polyreactivity |
| QVQLVESGGGLVQAGGSLRLSCAASGRTFTSNAMGWYRPAPGKERELVAAITQSGGSTYYADSVKGRFTISRDNAKNTVYLQMNSLKPEDTAVYYCNAETTGRTEYNYWGQGTQVTVSS | low polyreactivity |
| QGQLVESGGGLVQAGGSLRLSCAASGIILSAYALGWYRQAPGNERELVAAITRRGGRTYYADSVKGRFTISRDNAKNTVYLQMNSLKPEDTAVYYCATVQSGRVRTYDYWGQGTQVTVSS | high polyreactivity |
| QVQLVESGGGLVQAGGSLRLSCAASGRTFRRNTMGWYRQATGKERAFVAAITFSGVRTYYADSVKGRFTISRDNAKNTVYLQMNSLKPEDTAVYYCANSRQYIGGFDYWGQGTQVTVSS | high polyreactivity |
| QVQLVESGGGLVQAGGSLRLSCAASGSIILLYAMGWYRQAPGKERELVAAISRSGDSTHYADSVKGRFTISRDNAKNTVYLQMNSLKPEDTAVYYCAADGYHPYGGLYDYCGQGTQVTVSS | low polyreactivity |
| QVQLVETGGGLVHAGGSLRLSCAASGSIFYAYDMGWYRQAPGKERELVAAINWSGDSTYYADSVKGRVTISRDNANNTVYLQMNSLKPEDTAVYYCAAVSGSGDSGEYDYWGQGTQVTVSS | low polyreactivity |
| QVQLVESGGGLVQAGGSLRLSCAASGSTFYHNVRGWYRPAPGKERELVASIDTGDSTNYADSVKGRFTISRDNAKNTVYFQMNSLTPEDTAVYYCNADSYAALNKRGYDYWGQGTQVTVSS | low polyreactivity |
| QVQIVESGGGLVQAGGSLRLSCAAYGFTFYPYAMGWYRQAPGKERELVAAITRGGSTYYADSVKGRFTISRDNEKNTVYLQMNSLKPEDTAVYYCNAYWQGYGYDYWGQGTQVTVSS | low polyreactivity |
| LVQLVESGGGLVQAGGSLRLSCAASGRIFVGYAMGWFRQAPGKERELVAAISRRAGRTYYADSVKGRFTLSRDNAKNTVYLQMNSLKPEDTPVYYCIAPRYYPKAGFDYWGQGTQVTVSS | high polyreactivity |
| QVQLVESGGGLVQAGGSLRLSCAASGRTFTRYAMGWYRQAPGKERELVASISSRGTRTYYADSVKGRFTISRDNAKNTVYLQMNSLKPDDTAVYYCNVGFYPYYFLTYQGGDYWGQGTQVTVSS | high polyreactivity |
| QVQLVESGGGLVQAGGSLRLSCAASGFIFRGNTMGWYRQAPGKERELVAAISASGGSTYYADSVKGRFTISRDNAKNTVYLQMNSLKPEDTAVYYCNVAVIYRSRTYWYGMDYWGQGTQLTVSS | high polyreactivity |
| QVQLVESGGGLVQAGGSLRLSCAASGFTFWTYAMGWYRPAPGKERELVAAIDSGVSTYYADSVKGRFTISRDNAKNTVYLQMNSLKPEDTAVYYCNAGPSVTSGYDYDYWGQGTQVTVSS | low polyreactivity |
| QVQLVESGGGLVQAGGSLRLSCAPSGRIFSHYAMGWYRQAPGKERELVAAITSDGSTNYADSVKGRFTISRDNAKKTVYLQMNSLKPEDTAVYYSAKYVHIPDYYYLFGSYDYWGQGTQVTVSS | low polyreactivity |
| QVQLEESGGGLVQAGGSLRLSCAASGFIFPYYAMGWYRQAHGQERELVAAISRSGGRTYYADSVKGRFTISRDNAKNTVYLQMNSLKPEDTAVYYCNAPFQSEPFDYWGQGTQVTVSS | high polyreactivity |
| QVQLVESGGGLVQAGGSLSLICAASGRFSNAMGWYIQAPGKERELVAAITLSGTSTYYADSVKGRFTISRDNAKNTVYLQMNSLKTEDTAVYYCAAGSGYGVTWVYSPYTGVDYWGQGTQVTVSS | low polyreactivity |
| QVQLVESGGGLVQAGGSLRLSCAASGRIFTGNALGWYRQAPGKESELVAAITRNGGSTYYADSVKGRFTLSRDNAKNTVYVQMNSLKPEDTAVYYCAAKLSPVYYRRYDYWGQGTQVTVSS | high polyreactivity |
| QVQLVESGGGFVQAGGSLRLSCAASGRIFYGYAMGWYRQAPGKERELVAAISSGGITYYADSVKGRFTISRDNAKNTVYLQMNSLKPEDTAVYYCAADWAYYVASYLYYTFDYWGQGTQVTVSS | low polyreactivity |
| QVQLVESGGGLVQAGGSLRLSCAASGFTFRRNAMGWYRQAPGKERELVASITINGGSTTYADSVKGRFTISRDNAKNTVYLQMNSLKPEDTAVYYCNKRYRTYRSVPQYEYWGQGTQVTVSS | high polyreactivity |
| QVQLVESGGGLVQAGGSLRLSCAASGSIFGWYAMGWYRQAPGKERELVATISSGGSTSYADSVKGRFTISRDNAKNTVYLQMKSLKPEDTAVYYCAADIYPDWIYLLYGYWGQGTQVTVSS | low polyreactivity |
| QVQLVESGGGLVQAGGSLRLSCVASGRTFGNKAMGWYRQAPGKERELVAAITSGGSTNYADSVKGCFTISRDNAKNTVYLQMNSLKPEDTAVYYCAAKQYRAGGGYWGQGTQVTVSS | high polyreactivity |
| QVQLVESGGGLVQAGGSLRLSGAASGFIFVRYAMGWYRQAPGKERELVAAITRRGGSTHYADSVKGRFTISRDNAKNTVYLQMNSLTPEDTAVYYCAAGRQYYYLDRFPRVQGDYWGQGTQVTVSS | high polyreactivity |

| Sequence | polyreactivity (PSR sort gate) |
| --- | --- |
| QHQLVESGGGLVQAGASLRLSCAASGRTFFKNAKGWYRQAPGKERELVAGISRTGSTNYADSVKGRFTISSDNAKNTVYLEMNSLKPEDTAVYYCAAGVLGLPLRHRYDYWGQGTQVTVSS | low polyreactivity |
| QVQLVESGGGLVQAGGSLRLSCAASGYIFKWYAMGWYIQAPGKERELVAAITWSGDTTYYADSVKGRFTISRDNAQNTVYLQMNSLKPVDTAVYYCAVERDDQDYVYWGQGTQVTVSS | low polyreactivity |
| QVQLVESGGGLVQAGGSLRLSCAASGFTFYYYAMGWYRQAPGKERELVAAISSTGGSTYYADSVKGRFTISRDNAKNTVYLQMNSLKPEDSAVYYCNAAGYRYPGDYDYWGQGTQVTVSS | high polyreactivity |
| QLQLVESGGGLVQAGGSLRLSCAASGRIFVLYTMGRNRQATGKERELVAAISNVGSTNYADSVKGRFTISRDNAKYTVYLQMNSLIPEDTAVYYCNDRRRYGWHLYYYWGQGTQVTVSS | high polyreactivity |
| QDQLVESGGGLVQAGGSLRLSCAASGSTFPNNAMGWYREAPGKERELVATITTGGSTYYADSVKGRFTISRDNAKNTVYLQMNSLKPEDTAVYYCAADHLSYRRRYEYWGQGTQVTVSS | low polyreactivity |
| QVQLVESGGGLVQAGGSLLLSCAASGSTFPHYTMGWYSQAPGKEREWVAVISRSGRTYYADSVKGRFTISRDNAKNTVYLQMNSLKPEDTAVYYCAVLVGRLVWSYNHWGQGTQGTVSS | high polyreactivity |
| QVQLVESGGGLDQAGGSLRLSCAASGRTYYLYAMGWYRQAPGKERELVAAITFNGGSTYYADSVKGRFTISRDNGKNTVYLQMNSLKPEDTAVDYCAGRLSKRSGYYYWGQGTQVTVSS | high polyreactivity |
| QVQLVESGGGLVQAGGSLRLSCAASGLPYAMGWYRQAPGKERELVAAISSSGGSTYYADSVKGRFTISRDNAKNNVYLQMNSLKPEDTAVYYCNRDIGGTSVLDDYWGQGTQVTVSS | low polyreactivity |
| QVQLVESGGGLVQAGVSLRLSCAASGRIFNGNAMGWYRQAPGIEWELVATITRGGGSTYYADSVKGRFTISRDNAKKTVYLQMNSLKPEDTAVYSCNVPPPTQVRYRSDHWGQGTQVTVSS | low polyreactivity |
| QVQLVESGGGLVQAGGSLRLSCAASGRTFQGNAMGWYRQAPGKERELVAVIDSGTSTDYADSVKGRFTISRDNAKNTVYLQMNSLKPEDTAVYYCAADGALGYNLRYDYWGQGTQVTVSS | low polyreactivity |
| QVQLVESGGGLVQAGGSLRLSCAASGSTFLNYAMGWYRQAPWKERELVAAISGRGGRTYYADSVKGRFTISRDNATNTVYLQMNSLKPEDTAVYYCANKRRGGYLYRQELDYWGQGTQVTVSS | high polyreactivity |
| QVQHVESGGGLVQAGGSLRLSCAASGITFFYYAMGWYRQAPGKERELVAAISTSGGRTYYADSVKGRFTISRDNAKNTVYLQMNSLKPEDTAVYYCADQSGWLRYYYWGQGTQVTVSS | high polyreactivity |
| QVQLVESGGGLVQAGGSLRLSCAASGGIFKWYDMGWYRQAPGKEREFVAAITWSGGSTYYADSVKGRFTISRDNAKNTVYLQMNSLKPEVTAVYYCNVDWYPRGPHTVVFYDVSPFDYWGQGTQVTVSS | high polyreactivity |
| QVQLVESGGGLVQAGGSLRLSCAASGSTFVFYTMGWYRQAPGKEREFVASISGSGGSTYYADSVKGRFTISRDNAKNTVYLQMNSLKPEDTAVYYCAAGYPYYYWTPYYYWVQGTQVTVSS | high polyreactivity |
| QVQLVESGGGLVQAGGSLRLSCAASGSIFDIYAMGWYREAPGKERELVAAISGRGGSTYADSVKGRFTISRDNAKNTVYLQMNSLKPEDTAVYYCATERHRFGGLYYWGQGTQVTVSS | low polyreactivity |
| QVQLVESGGGLVQAGGSLRLSCAASGLTFIYYAMGWYRQAPGKERELVAAISVSGGSTSYADSVKGRFTISRDNAKNTVYLQMNSLKPEDTAVYYCAADWFVHKPRYQYSFDYWGQGTQVTVSS | low polyreactivity |
| QVQLVESGGGLVQEGGSLRLSCAASGSHFTRYVMGWYRPAPGKERELVAAITTGGSTYYADSVKGRFTISLDNAKNTVYLQMNSLKPEDTAVYYCAADRRTVSYKYNYWGQGTQVTVSS | high polyreactivity |
| QVQHVESGGGLVQAGGSLRLSCDASGLTISWYAMGWYRQAPGKEREMVAAISKRGGSTYYADSVKGRFTISRDNAKNTVYLQMNSLKPEDTAVYYCNARSPYTGWTLDYWGQGTQVTVSS | high polyreactivity |
| QVQLVESGGGLVQAGGSLRLSCAASGSILWHYAMGWYRQAPGKERELVAAISGSGRTNYADSVKGRFTISRDNAKNTVYLQMNSLKPEDTAVYYCARVHGTSESKYYYWGQGTQVTVSL | low polyreactivity |
| QVQLVESGGGLVQAGGSLRLSCAASGSTFSSYAMGWYRQAPGKERELVAAITSGGSTNYADSVKGRFTISRDNAKNTVYLQMNSLKPEDTAVYYCNAQINDFIFVYDYWGQGTQVTVSS | low polyreactivity |
| QVQLVESGGGLVQAGGSLRLSCAASGSTFGPYAMGWYRQAPGQERELVATITRNGGSTYYADSVKGRFTISRDNAKNTVYLQMNSLKPEDTAVYYCAARLYYEIYDYGAVRIGYDYWGQGTQVTVSS | low polyreactivity |
